Here are results for 18 sequences from the supplement of paper PMC12764529.

± gives the half width of the 95% confidence interval.

A short description of data set [1]: folding stability dG unfold (combined trypsin and chymotrypsin); higher = more stable. Put shortly:
(§1)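 Sequencing followed digestion of designed mini-proteins with trypsin and chymotrypsin, each at 11 concentrations in threefold dilutions together with a no-protease condition. The mini-proteins were under 80 residues, had no cysteine, sat in a PA-tagged cDNA display construct, and were kept only if AlphaFold2 dimer inter-PAE was above 15. From the counts, Bayesian fitting gave K50, and unfolding free energy was derived against a sequence-predicted unfolded-state K50 and a shared folded-state K50, per protease or combined.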

Data set [2] can be described thus: folding stability dG unfold from trypsin proteolysis; higher = more stable. Put shortly: as §1
Data set [3] can be described thus: folding stability dG unfold from chymotrypsin proteolysis; higher = more stable. The method in brief:
as §1

For the sequence “SAGGSAGGSHEIIIRVDSPEDAIEQAKSILRDHGIPEGFEPVPIEVLERDPNNGYYYVQIEVKSAGGSAGGS [r12_999_TrROS]”, the “folding stability dG unfold” value in data set [1] is 0.178 ± 0.1 kcal/mol; in data set [2] it was 0.601 ± 0.026 kcal/mol; in data set [3] it was -0.453 ± 0.077 kcal/mol.

As to “SAGGSAGGSHTIEIWIVKFPPDDFKGKTIEEMAKKFGDPDMPVEIVPIEITLPPDALKALLKNSAGGSAGGS [r12_178_TrROS]”, the figures for the “folding stability dG unfold” value in data set [1], in data set [2] and in data set [3] were 0.846 ± 0.059 kcal/mol, 0.768 ± 0.033 kcal/mol and 0.841 ± 0.061 kcal/mol, respectively.

On to “SAGGSAGGSIPPDVPVDLGAEVEYFPPGGVRRVRFSAPDGTPVATATFVFRGGELVEVRIEPASAGGSAGGS [r12_264_TrMRF]”, for which the entries for the “folding stability dG unfold” value in data set [1], in data set [2] and in data set [3] were 2.05 ± 0.15 kcal/mol, 1.89 ± 0.053 kcal/mol and 2.07 ± 0.13 kcal/mol, respectively.

“SAGGSAGGSITTVTGVYKTPDGNPTAATFEVANKPDGTVTYTVTVPGTGKTFSTDSLDLVTVDGSAGGSAGG [r6_255_JUSTAS]”: the entries for the “folding stability dG unfold” value in data set [1], in data set [2] and in data set [3] were 0.485 ± 0.042 kcal/mol, 0.296 ± 0.027 kcal/mol and 0.563 ± 0.072 kcal/mol, respectively.

As to “SAGGSAGGSKAEIVSVEKLPEEGELYLVKIRVDGKTYTIAVPVGSTVTIDVPPGAEIEIRKLPSAGGSAGGS [r12_373_TrROS_Hall]”, the “folding stability dG unfold” value worked out at 2.32 ± 0.046 kcal/mol in data set [1], 1.62 ± 0.038 kcal/mol in data set [2] and 2.619 ± 0.019 kcal/mol in data set [3].

As for “SAGGSAGGSKEKTYVIKVTITNENGEEFTLELTVTMTEEEAEELAKKLKELYPNAKVTIEKLPSAGGSAGGS [r12_268_TrROS_Hall]”, the entries for the “folding stability dG unfold” value in data set [1], in data set [2] and in data set [3] were 4.13 ± 0.16 kcal/mol, 4.16 ± 0.21 kcal/mol and 4.09 ± 0.12 kcal/mol, respectively.

As for “SAGGSAGGSKGPVVILIFRPKYNPVKGIELEVEEVIVVSPEELSLSALGPALEEKEGYALILPSAGGSAGGS [r20_75_TrMRF]”, the “folding stability dG unfold” value in data set [1] is 1.37 ± 0.038 kcal/mol; in data set [2], 1.26 ± 0.015 kcal/mol; in data set [3] it was 1.32 ± 0.068 kcal/mol.

On to “SAGGSAGGSKIKIIVPKEKEEEAERLAKELKEKGEIPEVEIEVVESEEEAKELEEKADLVIVVSAGGSAGGS [r12_679_TrROS_Hall]”, for which the “folding stability dG unfold” value was 0.805 ± 0.31 kcal/mol in data set [1], -0.562 ± 0.43 kcal/mol in data set [2] and 1.11 ± 0.19 kcal/mol in data set [3].

With “SAGGSAGGSKKEEFYKITVYSPNKKAEEIAKKIQEETGTEIVEVKAEKFKDGGIKVIALVKKTSAGGSAGGS [r12_359_TrMRF]”, the “folding stability dG unfold” value in data set [1] was -0.0936 ± 0.48 kcal/mol; in data set [2] it was -0.213 ± 0.19 kcal/mol; in data set [3] it was -0.558 ± 0.67 kcal/mol.

Turning to “SAGGSAGGSKKIIRFKTKEEAEEALKKAKPGETLEITLPNGEKIEVKVTKVERVDGYYYIEVESAGGSAGGS [r12_907_TrROS_Hall]”, the “folding stability dG unfold” value worked out at 3.13 ± 0.07 kcal/mol in data set [1], 2.53 ± 0.08 kcal/mol in data set [2] and 3.44 ± 0.077 kcal/mol in data set [3].

Regarding “SAGGSAGGSKKIMIPGSPDTAFSTIKEWIRNGHEVPIYYYSPGNPEPVAEQEITIDEEENDELSAGGSAGGS [r12_241_TrROS]”, the figures for the “folding stability dG unfold” value in data set [1], in data set [2] and in data set [3] were -0.309 ± 0.2 kcal/mol, -0.683 ± 0.3 kcal/mol and -0.183 ± 0.21 kcal/mol, respectively.

For “SAGGSAGGSKKITIVVPTKEQAEALAKALEEAGYKVEKLPDGTLKITVDGKKIEVRIVPPKPKSAGGSAGGS [r12_204_TrROS_Hall]”, the “folding stability dG unfold” value worked out at 2.7 ± 0.059 kcal/mol in data set [1], 1.28 ± 0.023 kcal/mol in data set [2] and 3.15 ± 0.047 kcal/mol in data set [3].

Regarding “SAGGSAGGSKKKIKITVEKVDEEKGYYYVTIEIYDEETGELVEKKTIVAPSKEEALKALKELLSAGGSAGGS [r12_26_TrROS_Hall]”, the “folding stability dG unfold” value in data set [1] came to 4.08 ± 0.35 kcal/mol; in data set [2], 4.41 ± 0.32 kcal/mol; in data set [3], 3.5 ± 0.2 kcal/mol.

Take “SAGGSAGGSKKKKKITIEILIKLKPGESPEEIAKKLEEKLGLKVKKVEVVKENGYYLVKIEIESAGGSAGGS [r20_188_TrROS_Hall]”: the “folding stability dG unfold” value turned out to be 2.85 ± 0.084 kcal/mol in data set [1], 1.52 ± 0.038 kcal/mol in data set [2] and 3.26 ± 0.044 kcal/mol in data set [3].

“SAGGSAGGSKKKKKKIKIKIVVNEDELAKKLGLSKEEVRKLAKELADELKKKGYEVEIEIIPPSAGGSAGGS [r12_576_TrROS_Hall]”: the “folding stability dG unfold” value in data set [1] came out at 2.89 ± 0.054 kcal/mol; in data set [2] it was 1.87 ± 0.049 kcal/mol; in data set [3], 3.29 ± 0.054 kcal/mol.

For “SAGGSAGGSKKKPPPVKVKIRVVVDGKVYEIEIEVDPNMTVEEIKEALRKLLGPDIKEVEIEPSAGGSAGGS [r12_300_TrROS_Hall]”, the “folding stability dG unfold” value in data set [1] turned out to be 3.07 ± 0.64 kcal/mol; in data set [2], 2.91 ± 0.29 kcal/mol; in data set [3], 1.93 ± 0.25 kcal/mol.

Regarding “SAGGSAGGSKKKTIVILVPPGMSVDAIKKKLKELGIKVKIVPAPPVKVKVDEKTNELKVEKVTSAGGSAGGS [r12_80_TrROS_Hall]”, the “folding stability dG unfold” value in data set [1] is 0.657 ± 0.15 kcal/mol; in data set [2], 0.874 ± 0.059 kcal/mol; in data set [3], 0.618 ± 0.086 kcal/mol.

As to “SAGGSAGGSKKKVKVKKFEKTKDADGNEVVKVFFEDDGKVVTLPEELADKLKEDDEFDLEDLASAGGSAGGS [r20_3_TrMRF]”, the “folding stability dG unfold” value in data set [1] was 0.139 ± 0.1 kcal/mol; in data set [2], -0.314 ± 0.077 kcal/mol; in data set [3] it was 0.381 ± 0.053 kcal/mol.
